Measured values as given in article PMC11467045, “The hGID^GID4 E3 ubiquitin ligase complex targets ARHGAP11A to regulate cell migration” (Life Science Alliance, 2024).
Where no end group is shown, it is not given here.

T1: GID4^Δ1–115 (human, UniProt Q8IVV7 116-300)
T1 construct: also called recombinant GID4 lacking its N-terminal domain; source: E. coli Rosetta 2(DE3)pLysS, purified (Strep-Tactin, Ulp1 cleavage, size-exclusion chromatography); not shown: 2xStrepII, N-terminal, cleaved; Smt3, N-terminal, cleaved
T1 sequence (looked up): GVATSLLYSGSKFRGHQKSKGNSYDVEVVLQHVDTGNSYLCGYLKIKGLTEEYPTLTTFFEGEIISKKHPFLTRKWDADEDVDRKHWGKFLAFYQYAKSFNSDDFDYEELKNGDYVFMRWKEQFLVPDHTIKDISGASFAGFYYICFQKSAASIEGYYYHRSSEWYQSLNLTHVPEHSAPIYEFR

B1: PGLWKS-TAMRA (peptide)
peptide: PGLWKS-{TAMRA}
notes: control degron peptide (Dong et al, 2018); also called TAMRA-labeled control peptide PGLWKS
B2: PGKLRSDAG (peptide)
peptide: PGKLRSDAG
notes: amino terminus of DDX21 (Owens et al, 2024), without the initiator methionine; also called N-terminal peptide of DDX21

Key:
[1] = target: T1, GID4^Δ1–115; test: fluorescence polarisation; saturation binding: 20 nM TAMRA-labeled peptide with indicated GID4^Δ1–115 concentrations, 10 min, FP buffer (20 mM MOPS pH 7.6, 100 mM NaCl, 25 mM D-trehalose, 1% glycerol, 0.01% Triton X-100, 0.1 g/l BSA); one site-specific binding model; settings: both partners purified
[2] = target: T1, GID4^Δ1–115; test: fluorescence polarisation; competition: 20 μM GID4^Δ1–115 and 20 nM PGLWKS-TAMRA, 10 min with twofold dilutions of unlabeled peptides in FP buffer; log(inhibitor) versus response, variable slope; settings: both partners purified

Row | Kd [1] [µM] | IC50 [2] [µM] | Binder
1 | 2.4 | – | B1
2 | – | 30.3 | PGLWKS (control degron peptide, unlabeled) [unlabeled PGLWKS]
3 | – | 83.4 | B2
